Positions of bridges follow the written chain, without caps; N, C: chain ends. No end group written: not given here. suc = not defined here
How the values were obtained:
[1] = target: T1, human IGFBP-1 (human, UniProt P08833 26-259); test: competitive phage ELISA
T1 sequence (looked up): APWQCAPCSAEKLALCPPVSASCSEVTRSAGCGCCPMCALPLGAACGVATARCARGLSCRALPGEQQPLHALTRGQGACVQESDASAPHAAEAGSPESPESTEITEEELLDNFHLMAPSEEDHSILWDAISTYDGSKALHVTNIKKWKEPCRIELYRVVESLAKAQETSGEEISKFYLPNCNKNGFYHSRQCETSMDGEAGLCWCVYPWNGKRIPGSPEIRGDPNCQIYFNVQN
Description: E. coli cells (XL1-Blue, Stratagene) freshly transformed with phagemid vector were grown overnight in 5 mL 2YT medium (Sambrook et al., supra) in the presence of M13-VCS helper phage (Stratagene). Phage particles were harvested and resuspended in PBS buffer as described in Lowman, H. B., “Phage Display of Peptide Libraries on Protein Scaffolds,” in Cabilly, S. (ed.), Combinatorial Peptide Library Protocols (Humana Press Inc.: Totowa, N.J., 1998), pp. 249-264. Then phage concentrations were normalized to yield a maximal ELISA signal of 0.2-0.4 for each mutant (Lowman, in Cabilly, S. (ed.), supra). Threefold serial dilutions of soluble competitor were prepared on non-absorbent microtiter plates (Nunc, F, 96 wells) with binding buffer (0.5% TWEEN 20%/PBS) containing phage at the previously determined concentrations. […] After blocking, the plates containing immobilized target were washed with 0.05% TWEEN™/PBS buffer and subsequently incubated with 80 μl/well of the premixed phage-competitor solutions for 1 hour at room temperature. […] IC₅₀ values were determined by fitting the binding data to a generic saturation curve (Lowman, in Cabilly, S. (ed.), supra). At least two individual clones of each IGF-1 mutant were assayed. Numbers in Table XIII represent mean±standard deviation of individually assessed IC₅₀ values.

[2] = target: T1, human IGFBP-1; test: competitive phage ELISA, value as restated in Table XIV (Table XIII prints 7.0 for the same pair)
[3] = target: IGF-1 G1S-A70V displayed on phage (human; bacteriophage M13); test: competitive phage ELISA: phage displaying G1S-A70V IGF-1 on an IGFBP-3-coated plate (1 µg/ml), competed by soluble IGFBP-3; OD492
[4] = target: IGF-1 G1S-A70V displayed on phage (human; bacteriophage M13); test: competitive phage ELISA: phage on an IGFBP-3-coated plate (1 µg/ml), competed by soluble IGFBP-3; OD492, mean ± SD, n=2
[5] = target: T1, human IGFBP-1; test: BIAcore inhibition, 9-10 nM IGFBP-1 to immobilized IGF-1
[6] = target: T1, human IGFBP-1; test: BIAcore inhibition assay
[7] = target: T1, human IGFBP-1; test: BIAcore inhibition assay; remark: listed apart in the source
Description: Peptides were assayed in a BIAcore™ assay as described in WO 98/45427, supra.

[8] = target: recombinant human IGFBP-3 (human, UniProt P17936 28-291); test: BIAcore competition, IGFBP-3 to IGF-1
Sequence of recombinant human IGFBP-3 (P17936 28-291 limits assumed): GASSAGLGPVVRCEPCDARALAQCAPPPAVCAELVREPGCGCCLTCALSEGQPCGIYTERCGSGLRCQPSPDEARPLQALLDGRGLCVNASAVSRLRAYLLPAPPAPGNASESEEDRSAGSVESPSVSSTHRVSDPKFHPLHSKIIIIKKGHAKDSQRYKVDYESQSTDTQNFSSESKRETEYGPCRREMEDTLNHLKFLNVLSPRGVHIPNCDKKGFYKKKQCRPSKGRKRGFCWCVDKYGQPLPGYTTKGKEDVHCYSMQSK

[9] = target: T1, human IGFBP-1; test: ELISA inhibition assay
[10] = target: T1, human IGFBP-1; test: inhibition assays
[11] = target: T1, human IGFBP-1; test: BIAcore kinetics, IGFBP-1 coupled to chip
Description: For each dilution of peptides, a global fit of the sensorgram data was performed using a 1:1 Langmuir binding model.

[12] = target: IGF-1 G1S-A70V displayed on phage (human; bacteriophage M13); test: competitive phage ELISA: phage displaying G1S-A70V IGF-1 on an IGFBP-1-coated plate (1 µg/ml), competed by soluble IGFBP-1; OD492
[13] = target: IGF-1 G1S-A70V displayed on phage (human; bacteriophage M13); test: competitive phage ELISA: phage on an IGFBP-3-coated plate (1 µg/ml), competed by soluble IGFBP-1; OD492, mean ± SD, n=2
[14] = target: T1, human IGFBP-1; test: BIAcore inhibition assay; reference

“IGF-1 F16A displayed on phage (from UniProt P69168 267-424) (ligand)” showed a relative IC50 (mut/G1S-A70V) [1] of 7 and a relative IC50 (mut/G1S-A70V) [2] of 6.

“recombinant human IGFBP-3 (from UniProt P17936 28-291)” showed an IC50 [3] of 0.5 nM and an IC50 (read off the curve) [4] of 0.7 nM.

B1: BP1-625 (peptide)
peptide: GQQSCAAGPLQWLCEHYFSTYGR
modifications: not fully specified (bridges); cysteine pairing not given here
In the case of B1, the “fold improved potency over BP1-01” value [5] is reported as ~20 fold.

B2: (i+7)B (peptide)
peptide: Ac-LEWLAEKYEG
modifications: linker 2-9 via 1,5‑diaminopentane
B2 was tested, and the binding result [6] was “no binding (tested: >360-fold weaker than BP1-01)” and the “fold potency reduction, IC50 (BP1-01)/IC50 (mut)” value [7] was > 360.

B3: BP3-107 (peptide)
peptide: suc-CQLVRPDLLLCQ-NH2
modifications: disulfide 1-11; reading uncertain
notes: also called phage parent t4H3.6
With B3 the IC50 [8] was 100000 nM.

B4: BP3-108 (peptide)
peptide: suc-IPVSPDWFVCQ-NH2
modifications: reading uncertain
notes: also called phage parent t4H3.9
With B4 the IC50 [8] was 20000 nM.

B5: BP1-26 (peptide)
peptide: CRAGPLQWRCEKYF
modifications: disulfide 1-10
notes: also called BP1-16 L9R
B5: no binding (tested: >570-fold the IC50 of BP1-16) [9].

B6: BP1-32 (peptide)
peptide: CRAGPRQWLCEKYF
modifications: disulfide 1-10
notes: also called BP1-16 L6R
B6: no binding (tested: >1000-fold the IC50 of BP1-16) [9].

B7: BP1-25 (peptide)
peptide: EARVCRAGPLQWLCEKYFSTY
modifications: disulfide 5-14
In the case of B7, the “fold affinity improvement over BP1-16” value [10] is reported as ~20 fold and the Kd [11] is reported as 42 nM.

B8: human IGFBP-1 (protein, UniProt P08833 26-259, looked up)
chain: T1 sequence (looked up)
With B8 the IC50 [12] was 8.5 nM and the IC50 (read off the curve) [13] was 8 nM.

B9: BP1-01 (peptide)
peptide: CRAGPLQWLCEKYFG
modifications: disulfide 1-10
With B9 the “fold potency reduction, IC50 (BP1-01)/IC50 (mut)” value [14] was 1.

Reference: patent US20090011988A1 (Genentech, published 2009)
